B1: library; numbered along this chain (parent)
chain: MAAAGGARLLRAASAVLGGPAGRWLHHAGSRAGSSGLLRNRGPGGSAEASRSLSVSARARSSSEDKITVHFINRDGETLTTKGKVGDSLLDVVVENNLDIDGFGACEGTLACSTCHLIFEDHIYEKLDAITDEENDMLDLAYGLTDRSRLGCQICLTKSMDNMTVRVPETVADARQSIDVGKTS

Variants of: B1
Test: scaled log2 fold change in cell abundance, elesclomol vs control (0 = silent mean, 1 = nonsense mean) (scaled log2 ratio); higher = higher viability under elesclomol (loss of FDX1 cuproptosis function)
Details: glucose 10 mM
Method: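 Deep mutational scan of full-length human FDX1: a pooled saturation-mutagenesis ORF library (every residue 2-184 mutated to all 19 amino acids plus stop, and silent codons where available) was expressed by lentivirus in FDX1-knockout ABC1 (14 days) or HEK293T (11 days) cells grown with elesclomol (ES) or DMSO control. Variant abundance came from ORF sequencing. The log2 fold change (ES vs control, mean of duplicates) was centred on the silent-variant mean (0) and scaled to the nonsense-variant mean (1). Higher values mean greater viability under ES, i.e. loss of FDX1 function in cuproptosis.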

[1] = with ABC1 FDX1 KO, elesclomol 5 nM, 14 days
[2] = with HEK293T FDX1 KO, elesclomol 40 nM, 11 days
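Further: variant abundance is its share of total variant reads in each endpoint sample, from next-generation sequencing of the integrated ORF PCR-amplified out of genomic DNA.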

Variant | scaled log2 fold change [1] | scaled log2 fold change [2]
MAAAGGARLLRAASAVLGGPAGRWLHHAGSRAGSSGLLRNRGPGGSAEASRSLSVSARARSSSEDKITVHFINRDGETLTTKGKVGDSLLDVVVENNNDIDGFGACEGTLACSTCHLIFEDHIYEKLDAITDEENDMLDLAYGLTDRSRLGCQICLTKSMDNMTVRVPETVADARQSIDVGKTS [L98N] | 0.309 | 0.504
MAAAGGARLLRAASAVLGGPAGRWLHHAGSRAGSSGLLRNRGPGGSAEASRSLSVSARARSSSEDKITVHFINRDGETLTTKGKVGDSLLDVVVENNWDIDGFGACEGTLACSTCHLIFEDHIYEKLDAITDEENDMLDLAYGLTDRSRLGCQICLTKSMDNMTVRVPETVADARQSIDVGKTS [L98W] | 0.476 | 0.189
MAAAGGARLLRAASAVLGGPAGRWLHHAGSRAGSSGLLRNRGPGGSAEASRSLSVSARARSSSEDKITVHFINRDGETLTTKGKVGDSLLDVVVENNPDIDGFGACEGTLACSTCHLIFEDHIYEKLDAITDEENDMLDLAYGLTDRSRLGCQICLTKSMDNMTVRVPETVADARQSIDVGKTS [L98P] | -0.901 | 0.205
MAAAGGARLLRAASAVLGGPAGRWLHHAGSRAGSSGLLRNRGPGGSAEASRSLSVSARARSSSEDKITVHFINRDGETLTTKGKVGDSLLDVVVENNRDIDGFGACEGTLACSTCHLIFEDHIYEKLDAITDEENDMLDLAYGLTDRSRLGCQICLTKSMDNMTVRVPETVADARQSIDVGKTS [L98R] | 0.136 | 0.607
MAAAGGARLLRAASAVLGGPAGRWLHHAGSRAGSSGLLRNRGPGGSAEASRSLSVSARARSSSEDKITVHFINRDGETLTTKGKVGDSLLDVVVENNTDIDGFGACEGTLACSTCHLIFEDHIYEKLDAITDEENDMLDLAYGLTDRSRLGCQICLTKSMDNMTVRVPETVADARQSIDVGKTS [L98T] | -0.168 | 0.331
MAAAGGARLLRAASAVLGGPAGRWLHHAGSRAGSSGLLRNRGPGGSAEASRSLSVSARARSSSEDKITVHFINRDGETLTTKGKVGDSLLDVVVENNQDIDGFGACEGTLACSTCHLIFEDHIYEKLDAITDEENDMLDLAYGLTDRSRLGCQICLTKSMDNMTVRVPETVADARQSIDVGKTS [L98Q] | 0.167 | -0.327
MAAAGGARLLRAASAVLGGPAGRWLHHAGSRAGSSGLLRNRGPGGSAEASRSLSVSARARSSSEDKITVHFINRDGETLTTKGKVGDSLLDVVVENNSDIDGFGACEGTLACSTCHLIFEDHIYEKLDAITDEENDMLDLAYGLTDRSRLGCQICLTKSMDNMTVRVPETVADARQSIDVGKTS [L98S] | 0.421 | -0.0745
MAAAGGARLLRAASAVLGGPAGRWLHHAGSRAGSSGLLRNRGPGGSAEASRSLSVSARARSSSEDKITVHFINRDGETLTTKGKVGDSLLDVVVENNVDIDGFGACEGTLACSTCHLIFEDHIYEKLDAITDEENDMLDLAYGLTDRSRLGCQICLTKSMDNMTVRVPETVADARQSIDVGKTS [L98V] | -0.0512 | -0.662

— the supplement of paper PMC12855868
